The source of these data is the nanobody polyreactivity screen of Harvey et al. (2022).

The nature of the data set: yeast display, Sf9 membrane polyspecificity reagent, FACS + sequencing; frameworks hold sequencing errors. Summed up:
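Sorting gates, low and high (top ~1%), were placed on anti-HA fluorescence to track expression and on streptavidin fluorescence to track reagent binding. A clone's polyreactivity label is taken from the gate it came out of. The reagent was 10% biotinylated, detergent-solubilized Sf9 membrane, applied for 1 hour at 4 °C to galactose-induced yeast display cells.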
Take “QVQLVESGGGLVQAGGSLRLSCAASGFIFGHYAMGWYRPAPGKERELVATIRRDPSRTYYADSVKGRFTISRDNAKNTVYLQMNSLKPEDTAVYYCATAQYIWGRSKYYYWGQGTQVTVSS”: the “polyreactivity (PSR sort gate)” value is recorded as “high polyreactivity”.

Turning to “QVQLVESGGGLVQAGGSLRLSCAASGIIFDWYAMGWYRQAPGKERELVAAISDSGDTTYYADSVKGRFTISRDNAKNTVYLQMNSLKPEDTAVYYCAAVSYQYYDLDYWGQGTQVTVSS”, the “polyreactivity (PSR sort gate)” value is given as “high polyreactivity”.

Consider “QVQLVESWGGLFQAGGSLRLSCAASGSIFVWYAMGRSRQAPGKEMELVAVISYGGDRTSYADSVKGRFTISRDNAKNTVYLQMNSLKPEDTAVYYCAARPFYRGYYYWGQGTQVTVSS”, for which the “polyreactivity (PSR sort gate)” value is “high polyreactivity”.

As to “QVQLVESGGGLVQAGGSLRLTCAASGLTFGLYAMGWYRQAPGKERELVAAITRGDSTNYADSVKGRFTISRDNAKNTVYLQMNSLKPEDTAVYYFNAVRTYWWGYNQQYNYWGQGTQVTVSS”, the “polyreactivity (PSR sort gate)” value is reported as “high polyreactivity”.

Regarding “QVQLEESGGGLVQAGGSLRLICAASGFIFLYYAMGWYRQAPGKERELVAAIDYSGGSTNYADSVKGRFTISRDNAKNTVYLQMHSLKPEDTAVYFFNAEYTWHRGYDYWGQGTQVTVSS”, the “polyreactivity (PSR sort gate)” value was “low polyreactivity”.

For “QVQLVESCGGLVQAGGSLRLSCAASGFTFVYYAMGWYRKAPGKEREFVAAISKSGGSTYYADSVKGRFTISRDNAKNTVYLQMNSLKPEDTAVYYCAARSYQGTSSGRVTRRYDYWGQGTQVTVSS”, the “polyreactivity (PSR sort gate)” value is given as “high polyreactivity”.

For the sequence “QVQLVESGGGLVQAGGSLRLSCAASGYIFRKYAMGWYRQAPGKERELVADISSSGGSTYYADSVKGRFTISRDNAKNTVYLQMNSLKPEDTAVYYCAKDRKSSRRITRMDYWGQGTQVTVSS”, the “polyreactivity (PSR sort gate)” value is “high polyreactivity”.

As for “QVQLVESGGRLVQAGGSLRLSCAASGSTLFAYAMGSYRQAPGKETELVASISSGGNTNYADSVKGRFTISRDNSKNSVYLQMYSLKPEDTAVYYCNAGVPYHYPSYTYLYYYWGQGTQVTVSS”, the “polyreactivity (PSR sort gate)” value is “low polyreactivity”.

With “QVQLGESGGGLVQAGGSLRLSCAPSGSIFGYYSMGWYRQAPGKERELVATITLSDDSTYYAVSVKGRFTISRDNAKITVYLQMNSLKPEDTAVYYCAAVRITRYQWDRSVGSGDYWGQGTQVTVSS”, the “polyreactivity (PSR sort gate)” value is listed as “high polyreactivity”.

“QVQLVESGGCLVQAGGSLRLSSAASGRTFRYYAMGSYRQAPGKERELVAAITVTVTSTFYADSVKGRFTISRDNAKNTVYLQMNSLKPEDTAVYYCAVPGATSYFPDDSWGQGTQVTVSS”: the “polyreactivity (PSR sort gate)” value was “low polyreactivity”.

Consider “QDQLVESGGGLVQAGGSLRLSCAASGINFPLYAMGWYRQAAGKERELVAAISSSDGDTFYADSVKWRFTISRDNAKNTVYLQMNSLKPYDTAVYYCAAVAPTELLYTYGYYPYYYWGQGTQVTVSS”, for which the “polyreactivity (PSR sort gate)” value is recorded as “high polyreactivity”.

On to “QVQLVESGGGLVQAGGSLRLSCAASGSTFFRYAMGWYRQAPGKEREFVAAITWSGTGTYYADSVKGRFTISRDNAKNTVYLQMNSLKPEDTAVYYCNADPFDLWAFYYGYVYGYYHWGQGTQVTVSS”, for which the “polyreactivity (PSR sort gate)” value is reported as “high polyreactivity”.

As to “QVQLVESGGGLVQAGGSLRLSCAASGRTFYNAMGWYRQAPGKERQLVAAITTGGGTKYADSVKGRFTISRDNAKNTVYLEMNSLKPEDTAVYYCNTDEWNHFYHGAHKYDYWGQGTQVTVSS”, the “polyreactivity (PSR sort gate)” value is “low polyreactivity”.

“QVQLVESGGGLVQAGGSLRLSCAASGSTFRGYAMGWYRQAPGKEREFVAAISRRGGTTYYADSVKGRFTISRDNAKNTVYLQMNSLKPEDTAVYYCNKVYYQHYLAFDYWGQGTQVNVSS”: the “polyreactivity (PSR sort gate)” value is reported as “high polyreactivity”.

In the case of “EVQLVESGGGLVQAGGSLRLSCAASGRIFKYYTMGWYRQAPGKERELVAAISRDDSTNYADSVKGRFTISRDNAMNTVYLQMNSLKPEDTAVYYCAKGYHQYAGFYYWGQGTQVTVSS”, the “polyreactivity (PSR sort gate)” value was “high polyreactivity”.

Consider “QDQLVESGGGLVQAGGSLRLSCAASGFTFYFYAMGWYRQAPGKERELVDAISRSGSRTYYADSVKGRFTISRDNAKNSVYLQMNILKPEDTAVYYCARVRPRGLYFVLHYDYWGQGTQVTVSS”, for which the “polyreactivity (PSR sort gate)” value is “high polyreactivity”.

Consider “QVQLVESGGGLVQAGGSLRLSCAASGFTFSVYAMGWYRQAPGKERELVAAISRGGGGTYYADSVKGRFTISRDNAKNTVYLQMNSLKPEDTAVYYCNAAGYPQYKGYDYWGQGTQVTVSS”, for which the “polyreactivity (PSR sort gate)” value is recorded as “high polyreactivity”.

In the case of “QDQHVESGGGLVQAGGSLRLICDASGTFKFSAMGWYRQAPGKERELVARISRGGTTNYADSVKGRFTISRDNAKNTVYLQMNSLKPAETAVYYCAAPLRYVYSNSYWAYRYDYSGQGTQVTVSS”, the “polyreactivity (PSR sort gate)” value is reported as “high polyreactivity”.

Consider “QVQLVESGGGLVQEGASLRLSCAASGFIFLQYAMGWYRQAPGKERELVAAITSGGGTNYADSVKGRFTISRDNAKNTVYLQMNSLKPEDTAVYYCAARTWPWVLGATQDDYWGQGTQVTVSS”, for which the “polyreactivity (PSR sort gate)” value is on record as “low polyreactivity”.

Take “QDQLVESGGGLVQAGGSLRLSCAASGRIFDIYAMGWYRQAPGKERELVAAITWRGGSTYYADSVKGRFTISRDTAKNTLYLQMNSLKPEDTAVYYCAVDFITPRGSYYWGQGTQVTVSS”: the “polyreactivity (PSR sort gate)” value was “low polyreactivity”.

“QVHLVESGGGLVQAGGSLRLSCAASGRIFPGYAMGWYRQAPGKERELVAAISWIGGDTYYADSVKGRFTISRDNAKNTVYLQMNSLIPEDTAVYYCAARYGRHRVSWYATWRYGYWGQGTQVTVSS”: the “polyreactivity (PSR sort gate)” value is listed as “low polyreactivity”.

“QVKLVESGGGLVQAGGSLRLSCAASGLIFQKYAMGWYRQPPGKERELVAAISGGGRTYYADSVKGRFTISRDNSKNTVYLQMNSMKPEDTAVYYCAVYWYYLGYYYYYDFDYWGQGTQVTVSS”: the “polyreactivity (PSR sort gate)” value was “high polyreactivity”.

Regarding “QVQLVESGGGLVQAGGSLRLICAASGRIFRVNAMGWYIQAPGKERELVAGITWSGGSTYYADSVKGRFTISRDNAKNTVYLQMNSLQPEDTAVYSCNAEYSPSYLFYWYEYIYWGQGSQVTVSS”, the “polyreactivity (PSR sort gate)” value is on record as “high polyreactivity”.

“QVQLVESGGGLVQAGGSLRLSCAASGITSSRYAMGLYRQAPGKVRELVAAISSSGGSTYYADSVKGRFTSSRDNAKTTVYLQLISLKPEDTAVYYCNVVSTRLAKYTFGFWGQGTQVTVSS”: the “polyreactivity (PSR sort gate)” value is recorded as “high polyreactivity”.

Consider “QVQLVESGGGLVQAGGSLRLSCAPSGSTFYPYAMGWYRQAPGKERELVAAISSGGSTYYADSVKGRFTISRDNAKNTVYLQMNSLKPEDTAVYYCAADFYYAYYWGQGTQVTVSS”, for which the “polyreactivity (PSR sort gate)” value is on record as “low polyreactivity”.

Consider “QVQLVESGGGLVQAGGSLRLSCAASGNIFLYYDMGWYRQAPGKERELVADIDSSGASTYYADSVKGRFTISRDNAKNTVYLQMNSLKPEDTAVYYCAAELHWWYAGYEYGYWGQGTQVTVSS”, for which the “polyreactivity (PSR sort gate)” value is listed as “low polyreactivity”.

On to “QVQLLESGGGLVQAGGSLRLSCAASGSIFAYYAMGWYRQAPGKERELVAAISGTGGSTNYADSVKGRFTISRDNAKNTVYLQMNSLKPEDTAVYYCAKDYSFQWRNEFNLAGEYVYWGQGTQVTVSS”, for which the “polyreactivity (PSR sort gate)” value was “low polyreactivity”.

For “QVQLEESGGGLVQAGGSLRLSCAASGSIFNVNTIGWYRQAPGKEREFVAAISYSGGSTYYADSVKGRFTISRDNAKNTVYLQMNSLKAEDTALYYCNVSPTTSGDGGGYDSWGQGTQVTVSS”, the “polyreactivity (PSR sort gate)” value is given as “low polyreactivity”.

As to “QVQLVESGGGLVQAGGSLRLSCAASGRTFQDNAMGWYRQAPGKERELVAAMSWRGGSTNYADSVKGRFTISRDNAKNTVYLQMKSLKPEDTAVYYCYRDQRKYGKLDYWVQGTQVTVSS”, the “polyreactivity (PSR sort gate)” value is “low polyreactivity”.

Turning to “QVQLVESGGGLVQAGGSLRLSCAASGRTFDYYAMGWYRPAPGKERELVARISWNGGSTRYADSVKGRFTISRDNAKNTVYLQMNSLKPEDTAVYYCKKVPYYAGQHYDYWGRGTQVTVSS”, the “polyreactivity (PSR sort gate)” value is listed as “high polyreactivity”.
